Fewer inactive variants are shown than the library holds.
B1: TPR 5TU (parent)
chain: GGAUCUUCUCGAUCUAACAAAAAAGACAAAUCUGCCACAAAGCUUGAGAGCAUCUUCGGAUGCAGAGGCGGCAGCCUUCGGUGGCGCGAUAGCGCCAACGUUCUCAACUAUGACACGCAAAACGCGUGCUCCGUUGAAUGGAGUUUAUCAUG

Variants of: B1
Assay: polymerase ribozyme fitness, log enrichment relative to wild type (log ratio); higher = more active; in vitro selection for triplet polymerase activity
Outline: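 Mutant libraries of each subunit of a heterodimeric triplet polymerase ribozyme were built by PCR and transcribed. Each library went through one round of in vitro selection in triplicate: annealing with biotinylated primer, partner subunit and triplets, frozen incubation at −7 °C, gel excision of extended constructs, streptavidin-bead capture and RT-PCR. Input and output libraries were Illumina-sequenced; only genotypes with ≥10 input reads and ≥1 read per output were kept. Fitness is log2(genotype enrichment/wild-type enrichment), using inverse-variance-weighted replicate averages.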

First: GGAUCUUCUCGAUCUAACAAAAAUGACAAAUCUGCCACAAAGCUUGAGAGCAUCUUCGGAUGCAGAGGCGGCAGCCUUCUGUGGCGCGAUAGCGCCAACGUUCUCAACUAUGACACGCAAAAGGCGUGCUCCGUUGAAUGGAGUUGAUCAUG
Second: GGAUCUUCUCGAUCUAACAAAAAUGACAAAUCUGCCACAAAGCUUGAGAGCAACUUAGGAUGCAGAGGCGGCAGCCUUCGGUGGCGCGAUAGCGACAACGUUCUCAACUAUGACACGCAAAAGGCGUGCUCCGUUGAAUGGAGUUUAUCAUG
The “polymerase ribozyme fitness (log ratio)” value of the first is lower: -1.39 for the first, 0.167 for the second.

First: GGAUCUUCUCGAUCUAACAAAAAUGACAAAUCUGCCACAAAGCUGGAGAGCAUCUUCGGAUGCAGAGGCGGCAGCCUUCGGUGGCGCGAUACCGCCAACGUUCUCAACUAUGACACGCAAAACGCGUGCUCCGUUGAAUGGAGUUUAUCAUG
Second: GGAUCUUCUCGAUCUAACAAAAAUGACAAAUCUGCCACAAAGCUUGAGAGCAUCUUCGGAUGCAGAGGCGGCAGCCUUCCGUGGCUCGAUAGCGCCAACGUUCUCAACUAUGACACGCAAAACGGGUGCUCCGUUGCAUGGAGUUUAUCAUG
The “polymerase ribozyme fitness (log ratio)” value of the first is higher: -2.88 for the first, no more than -4.2 for the second.

Going from GGAUCUUCUCGAUCUAACAAAAAUGACAAAUCUGCCACAAAGCUCGAGAGCAUCUUCGGAUGCAGAGGCGGCAGCCUUCGGUGGCGCGAUAGCGCCAACGGUCUCGACUAUGACACGCAAAACGCGUGCUCCGUUGAAUGGAGUUUAUCAUG to GGAUCUUCUCGAUCUAACAAAAAUGACAAAUCUGCCACAAAGCUUGAGAGCAUCUUCGGAUGCAGAGCCGGCAGCCUUCGCUGGCGCGAUAGCACCACCGUUCCCAACUAUGACACGCAAAACGCGUGCUCCGUUGAAUGGAGUUUAUCAUG, the “polymerase ribozyme fitness (log ratio)” value falls from 0.694 to no more than -4.2.

First: GGAUCUUCUCGAUCUAACAAAAAUGACAAAUCUGCCACAAAGCUUGAGAGCAUCUUCGCAUGCAGAGGCGGCAGCCUUCGGUGGCGCGAUAGCGCCAACGUUCUCAACUAUGACACGCAAAACGCGUGCUCCGUUGAAUGGAGUUUAUCAUG
Second: GGAUCUUCUCGAUCUAACAAAAAUGACAAAUCUGCCACAAAGCUUGAGAGCAUCUUCGGAUGCAGACGCGGCAGCGUUCGGUUGCGCGAUAGCGCCAACGUUCUCAACUAUGACACGCAAAACGCGUGCUCCGUUGAAUGGAGUUUAUCAUG
The “polymerase ribozyme fitness (log ratio)” value of the first is higher: 0.829 for the first, -2.24 for the second.

Compared with GGAUCUUCUCGAUCUAACAAAAAUGACAAAUCUGCCACAAAGCUUGAGAGCAUCUUCGGAUUCAGAGGCGGCAGCCUUCGGUGGCGCGAUAGCGCAAACGUUCUCAACUAUGACACACAAAACGCGUGCUCCGUUGAAUGGAGUUUAUCAUG, GGAUCUUCUCGAUCUAACAAAAAUGACAAAUCUGCCACAAAGCUUGAGAGCAACUUCGGAUGCAGAGGCGGCAGCCUUCAGUGGUGCGAUAGCGCCAACGUUCUCAACUAUGACACGCAAAACGCGUGCUCCGUUGAAUGGCGUUUAUCAUG is lower in “polymerase ribozyme fitness (log ratio)” value: -1.86 for the first, no more than -4.2 for the second.

First: GGAUCUUCUCGAUCUAACAAAAAUGACAAAUCUGCCACAAAGCUUGAGAGCAUCUUCGGAUGCAGAGGCGGCAGCCUUCCGUGGCGCGAUAGCGCCAACGUUCUCAACUAUGACACGCAAAACGCGUGCUCCGUUGAAUGGAGUUUAUCAUG
Second: GGAUCUUCUCGAUCUAACAAAAAUGACAAAUCUGCCACAAAGCUUGAGAGCAUCUUCGGAUGCAGAGGCGGCAGCCUUCUGUGGCGCGAUAGCGCCAACGUUCUCAACUAUGACACGCAAAACGCGUGCUCCGUUGAAUGGAGUUUAUCAUG
The “polymerase ribozyme fitness (log ratio)” value of the first is lower: -4.14 for the first, -0.195 for the second.

First: GGAUCUUCUCGAUCUAACAAAAAUGACAAAUCUGCCACAAAGCUUGAGAGCAACAUCGGAUGCAGAGGCGGCAGCCUUCGGUGGCGCGAUAGCGUCAAAGUUCUCAACUAUGACACGCAAAACGCGUGCUCCGUUGAAUGGAGUUUAUCAUG
Second: GGAUCUUCUCGAUCUAACAAAAAUGACAAAUCUGCCACAAAGCUUGAGAGCAUCUUCCGAUGCAGAGGCGGCAGCCUUCGGUGGCGCGAUAGCGCCAACGUUCACAACUAUGACACGCAAAACGCGUGCUCCGUUGAAUGUAGUUUAUCAUG
The “polymerase ribozyme fitness (log ratio)” value of the first is lower: no more than -4.2 for the first, -1.93 for the second.

Compared with GGAUCUUCUCGAUCUAACAAAAAUGACAAAUCUGCCACAAAGCUUGAGAGCAUCUACGGAUGCAGAGGCGGCAGCCUUCGGUGGCGCGAUAGCGCCAACGUUCUCAACUAUGACACGCAAAACGCGUGCUCCGUUGAAUGGAGUUUAACAUG, GGAUCUUCUCGAUCUAACAAAAAUGACAAAUCUGCCACAAAGCUUGAGAGCAUCUUCGGAUGCAGAGGCGGCAGCCUUCGGUGGCGCGAUAGCACCAACGUUCUCAACUAUGACACGCAAAACGCGUGCUCCGUUGAAUGGAUUUUAUCAUG is higher in “polymerase ribozyme fitness (log ratio)” value: -3.8 for the first, -3.4 for the second.

Compared with GGAUCUUCUCGAUCUAACAAAAAUGACAAAUCUGCCACAAAGCUUGAGAGCAUCCUCGGAUGCAGAGGCGGCAGCCUUCGGUGGAGCGAUAGCGCCAACGUUCUCAACUAUGACACGCAAAACGCGUGCUCCGUUGAAUGGAGUUUAUCAUG, GGAUCUUCUCGAUCUAACAAAAAUGACAAAUCUGCCACAAAGCUUGAGAGCAUCUUCGGAUGCAGAGGCGGCAGCCUUCGGUGGCGCGAUAGCACCAACGUUCUCAACUAUGACACGCAAAACGCGUGCUCCGUUGAAUGGAGUUUAUCAUG is higher in “polymerase ribozyme fitness (log ratio)” value: -1.34 for the first, 0.123 for the second.

In the case of GGAUCUUCUCGAUCUAACAAAAAUGACAAAUCUGCCACAAAGCUUGAGAGCAUCUUCGGAUGCAGAGGCGGCAGCCUUCGGUGGCGCGAUAGCGCCAACGUUCUCAACUAUGACACGCAAAACGCGUGCUCCGUUGAAUAGAGUUUAUCAUG, the “polymerase ribozyme fitness (log ratio)” value is reported as -4.12.
